Legend:
[1] = target: soluble recombinant HLA A*0201 (α chain tagged with a biotinylation sequence, with β2m); test: SPR; real time pMHC stability assay, BIAcore 3000, CM5 chip; ~500 RU of biotinylated refolded pMHCI immobilised on streptavidin; flow 10 μl/min for 15,000 s; Langmuir dissociation analysis converted to half-life
[2] = target: HLA A*0201 on the surface of TAP deficient T2 cells (human (endogenous in T2 cells)); test: flow cytometry on cells; T2-binding assay: TAP deficient T2 cells with peptide at 100, 50, 10 and 1 μM in AIM-V, 10 min 37 °C, room temperature overnight, 2 h 37 °C; surface HLA A*0201 stained with anti-human HLA A*0201:RPE; MFI fitted (log(agonist) vs. response) to logEC50

Row | half-life [1] [h] | koff [1] [s⁻¹] | LogEC50 [2] [M] | Substance
1 | 8.9 | 2.2e-05 | -3.53 | NY-ESO-1 157-165 peptide …
2 | 16.9 | 1.1e-05 | -4.3 | PSA 178-187 peptide …

From PMC3032881
